Laboratory results: patent publication US20020142457A1, “Cell having the potentiality of differentiation into cardiomyocytes” (priority 1999, published 2002)
Ends that are not written are not given here.

Assays:
[1] = test system: bone marrow cell (BMSC-MesP1); experiment: Differentiation of BMSC-MesP1 with cytokines, phase contrast microscope; assay type: cell-based, mouse; settings: BMSC-MesP1, 5-aza-C 3 μM; cytokine 10 ng/ml; four weeks
Experimental: A mouse bone marrow-derived pluripotent stem cell (BMSC-MesP1) having the potential to differentiate into cardiomyocytes in which the MesP1 gene was forced-expressed was obtained using a retrovirus vector in the same manner as in Example 6, and then the differentiation was induced to examine efficiency of differentiation into cardiomyocytes.
The bone marrow cell (BMSC-MesP1) having the potential to differentiate into cardiomyocytes in which MesP1 was forced expressed was plated into a 60-mm culture dish in a density of 2×10^4 cells/ml and cultured at 33° C. in a 5% CO2-incubator. On the next day, 5-aza-C was added to the culture medium to give a final concentration of 3 μM, followed by culturing under five different conditions, namely (i) addition of FGF-8 to give a final concentration of 10 ng/ml (culture dish N), (ii) addition of ET-1 to give a final concentration of 10 ng/ml (culture dish P), (iii) addition of Midkine to give a final concentration of 10 ng/ml (culture dish Q), (iv) addition of BMP4 to give a final concentration of 10 ng/ml (culture dish R), and (v) no addition (culture dish S).
On the next day, the medium was exchanged with a fresh medium in order to eliminate 5-aza-C from the medium, and then the culturing was continued by adding FGF-8 to the culture dish N to give a final concentration of 10 ng/ml, ET-1 to the culture dish P to give a final concentration of 10 ng/ml, Midkine to the culture dish Q to give a final concentration of 10 ng/ml and BMP4 to the culture dish R to give a final concentration of 10 ng/ml. Two days and 4 days thereafter, the medium exchange and addition of FGF-8, ET-1, Midkine or BMP4 were carried out similarly.
Four weeks after the addition of 5-aza-C, morphology of the cells was observed under a phase contrast microscope. As a result, the number of myotube-like cells was not changed greatly by the forced expression of MesP1. In addition, about 50% of the cells became myotube-like cells in the culture dish to which FGF-8, ET-1, Midkine or BMP4 had been added.

[2] = test system: bone marrow cell (BMSC-MesP1); experiment: Quantitative PCR of genes expressed in myotube-like cells from BMSC-MesP1; assay type: cell-based, mouse; settings: BMSC-MesP1, 5-aza-C 3 μM, cytokine 10 ng/ml
Experimental: Next, RNA was recovered from the thus obtained myotube-like cells, and genes expressing in the myotube-like cells were analyzed by quantitative PCR using the synthetic oligonucleotides shown in SEQ ID NOS:71 to 78. As a result, expression of ANP as a gene specific for a myocardium was accelerated by the forced expression of MesP1.

Row | Molecule | cells became myotube-like cells [1] | expression of ANP accelerated by the forced expression of MesP1 [2]
1 | ET-1: endothelin 1, cytokine (CSCSSLMDKECVYFCHLDIIW; ends and bridges not checked; cysteine pairing not given here; UniProt P05305 53-73, looked up) | about 50% | did not further accelerate
2 | BMP4: bone morphogenic protein 4, cytokine (protein, UniProt P12644 293-408, looked up) Bone morphogenetic protein 4: SPKHHSQRARKKNKNCRRHSLYVDFSDVGWNDWIVAPPGYQAFYCHGDCPFPLADHLNSTNHAIVQTLVNSVNSSIPKACCVPTELSAISMLYLDEYDKVVLKNYQEMVVEGCGCR | about 50% | did not further accelerate
3 | FGF-8: fibroblast growth factor 8, cytokine (protein, UniProt P55075 23-233, looked up) Fibroblast growth factor 8: QEGPGRGPALGRELASLFRAGREPQGVSQQHVREQSLVTDQLSRRLIRTYQLYSRTSGKHVQVLANKRINAMAEDGDPFAKLIVETDTFGSRVRVRGAETGLYICMNKKGKLIAKSNGKGKDCVFTEIVLENNYTALQNAKYEGWYMAFTRKGRPRKGSKTRQHQREVHFMKRLPRGHHTTEQSLRFEFLNYPPFTRSLRGSQRTWAPEPR | about 50% | did not further accelerate
4 | midkine: cytokine, amino acid sequence SEQ ID NO:68 (protein, listed as Homo sapiens, CDS (1)..(432)) MQHRGFLLLTLLALLALTSAVAKKKDKVKKGGPGSECAEWAWGPCTPSSKDCGVGFREGTCGAQTQRIRCRVPCNWKKEFGADCKYKFENWGACDGGTGTKVRQGTLKKARYNAQCQETIRVTKPCTPKTKAKAKAKKGKGKD | about 50% | did not further accelerate
